Source: US20190002567A1 (LABORATOIRE FRANCAIS DU FRACTIONNEMENT ET DES …, published 2019)
Substitutions are numbered along the chain they refer to.

T1: human CD303 antigen (C-type lectin domain family 4 member C) (human, UniProt Q8WTT0 1-213)
T1 sequence: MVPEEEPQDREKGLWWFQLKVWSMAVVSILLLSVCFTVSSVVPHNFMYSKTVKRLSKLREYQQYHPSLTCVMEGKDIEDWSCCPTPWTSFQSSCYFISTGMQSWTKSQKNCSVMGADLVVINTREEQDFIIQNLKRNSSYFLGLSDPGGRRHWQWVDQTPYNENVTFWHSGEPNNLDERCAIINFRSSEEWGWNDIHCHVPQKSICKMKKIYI

B1: chimeric antibody 104E10 (antibody, human IgG1, kappa)
heavy: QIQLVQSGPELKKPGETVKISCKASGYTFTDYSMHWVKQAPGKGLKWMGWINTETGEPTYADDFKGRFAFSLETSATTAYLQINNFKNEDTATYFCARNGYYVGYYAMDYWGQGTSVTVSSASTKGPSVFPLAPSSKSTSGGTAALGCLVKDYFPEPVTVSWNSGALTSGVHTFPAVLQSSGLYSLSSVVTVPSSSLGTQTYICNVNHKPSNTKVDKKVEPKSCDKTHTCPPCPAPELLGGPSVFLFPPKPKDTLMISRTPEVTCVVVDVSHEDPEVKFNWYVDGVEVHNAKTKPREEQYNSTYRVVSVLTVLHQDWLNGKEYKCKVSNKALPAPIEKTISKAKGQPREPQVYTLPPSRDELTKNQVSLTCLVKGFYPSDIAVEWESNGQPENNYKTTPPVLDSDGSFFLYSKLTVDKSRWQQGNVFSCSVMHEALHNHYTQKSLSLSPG
light: QIVLTQSPAIMSASPGEKVTMTCSASSSVIYMHWFQQKPGTSPKLWIYSTSNLASGVPARFSGSGSGTSYSLTISRMEAEDAATYYCQQRRSYPYTFGGGTKLEIKRTVAAPSVFIFPPSDEQLKSGTASVVCLLNNFYPREAKVQWKVDNALQSGNSQESVTEQDSKDSTYSLSSTLTLSKADYEKHKVYACEVTHQGLSSPVTKSFNRGEC
notes: Family 2
B2: chimeric antibody 102E9 (antibody, human IgG1, kappa)
heavy: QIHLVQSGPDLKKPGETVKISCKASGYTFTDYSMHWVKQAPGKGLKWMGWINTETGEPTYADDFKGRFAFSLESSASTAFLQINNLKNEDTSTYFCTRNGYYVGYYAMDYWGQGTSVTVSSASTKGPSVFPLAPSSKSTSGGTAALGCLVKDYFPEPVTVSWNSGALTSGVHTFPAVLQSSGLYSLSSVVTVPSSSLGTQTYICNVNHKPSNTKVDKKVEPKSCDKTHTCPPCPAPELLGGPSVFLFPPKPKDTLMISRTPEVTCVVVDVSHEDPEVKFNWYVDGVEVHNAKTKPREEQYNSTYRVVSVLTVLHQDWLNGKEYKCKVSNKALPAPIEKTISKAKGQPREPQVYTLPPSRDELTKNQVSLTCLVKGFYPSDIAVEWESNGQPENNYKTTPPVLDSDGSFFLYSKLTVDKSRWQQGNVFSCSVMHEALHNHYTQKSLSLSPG
light: B1 light with M21I, M32I, N52Y, Y95F
notes: Family 2; the text gives the same values for 102E9
B3: chimeric antibody 114D11 (antibody, human IgG1, kappa)
heavy: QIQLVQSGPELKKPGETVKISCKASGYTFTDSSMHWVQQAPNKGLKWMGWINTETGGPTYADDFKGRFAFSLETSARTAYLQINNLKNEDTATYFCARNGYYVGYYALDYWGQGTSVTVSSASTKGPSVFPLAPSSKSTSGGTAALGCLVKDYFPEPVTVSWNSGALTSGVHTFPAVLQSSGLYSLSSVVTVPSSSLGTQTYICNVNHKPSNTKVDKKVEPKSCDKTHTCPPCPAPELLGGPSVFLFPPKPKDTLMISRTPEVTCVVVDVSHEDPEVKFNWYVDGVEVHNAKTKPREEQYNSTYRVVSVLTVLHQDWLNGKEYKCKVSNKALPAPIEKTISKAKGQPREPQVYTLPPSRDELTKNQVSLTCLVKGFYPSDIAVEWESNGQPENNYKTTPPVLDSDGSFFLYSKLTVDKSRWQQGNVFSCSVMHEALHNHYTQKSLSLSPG
light: B1 light with M21I, I30F
notes: Family 2
B4: chimeric antibody 104C12 (antibody, human IgG1, kappa)
heavy: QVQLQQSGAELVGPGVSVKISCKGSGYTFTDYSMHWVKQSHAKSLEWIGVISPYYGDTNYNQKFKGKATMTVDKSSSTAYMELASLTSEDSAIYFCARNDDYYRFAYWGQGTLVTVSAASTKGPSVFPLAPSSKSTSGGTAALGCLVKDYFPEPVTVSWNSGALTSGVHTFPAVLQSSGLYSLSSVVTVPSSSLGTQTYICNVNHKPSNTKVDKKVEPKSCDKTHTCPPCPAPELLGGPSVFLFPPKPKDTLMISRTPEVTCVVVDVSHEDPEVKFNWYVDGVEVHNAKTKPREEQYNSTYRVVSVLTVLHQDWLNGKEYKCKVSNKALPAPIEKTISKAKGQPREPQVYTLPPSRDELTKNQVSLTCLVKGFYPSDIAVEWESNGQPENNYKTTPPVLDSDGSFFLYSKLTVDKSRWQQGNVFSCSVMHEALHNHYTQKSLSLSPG
light: DLQMTQTPSSLSASLGDRVTISCRASQDINNYLSWYQEKPDGTFKLLIYYTSRLHSGVPSRFSGSGSGTDYSLTVRNLEQEDIGTYFCQQGKTLPWTFGGGTKLEIRRTVAAPSVFIFPPSDEQLKSGTASVVCLLNNFYPREAKVQWKVDNALQSGNSQESVTEQDSKDSTYSLSSTLTLSKADYEKHKVYACEVTHQGLSSPVTKSFNRGEC
notes: Family 1
B5: chimeric antibody 122A2 (antibody, human IgG1, kappa)
heavy: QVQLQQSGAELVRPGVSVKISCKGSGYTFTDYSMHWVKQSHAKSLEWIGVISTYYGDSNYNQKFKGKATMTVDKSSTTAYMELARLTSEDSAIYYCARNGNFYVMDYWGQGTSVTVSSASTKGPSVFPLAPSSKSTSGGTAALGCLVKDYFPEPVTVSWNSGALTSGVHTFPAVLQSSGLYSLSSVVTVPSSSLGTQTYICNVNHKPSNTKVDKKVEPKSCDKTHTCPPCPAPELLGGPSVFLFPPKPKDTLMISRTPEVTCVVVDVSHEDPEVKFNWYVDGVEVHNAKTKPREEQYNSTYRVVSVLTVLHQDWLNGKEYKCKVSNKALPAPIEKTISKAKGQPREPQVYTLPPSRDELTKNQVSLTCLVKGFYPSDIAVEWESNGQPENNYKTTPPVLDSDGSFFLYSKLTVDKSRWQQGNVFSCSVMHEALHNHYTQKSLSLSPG
light: DIQMTQTTSSLSASLGDRVTISCRASQDISNYLNWYQQKPDGTVKLLIYYTSRLHSGVPSRFSGSGSGTDYSLTISNLDQEDIATYFCQQGNTLPWTFGGGTKLEIKRTVAAPSVFIFPPSDEQLKSGTASVVCLLNNFYPREAKVQWKVDNALQSGNSQESVTEQDSKDSTYSLSSTLTLSKADYEKHKVYACEVTHQGLSSPVTKSFNRGEC
notes: Family 1; also called Ch; 122A2 mAb; Ch122A2 mAb

What follows are binders tested against T2, FcγRIIIa (CD16a) (UniProt P08637 17-254, limits assumed) (assay: competition with 3G8-PE for CD16 on NK cells, flow cytometry).
T2 construct: whole, on cells; also called FcvRIIIa
T2 sequence (P08637 17-254 limits assumed): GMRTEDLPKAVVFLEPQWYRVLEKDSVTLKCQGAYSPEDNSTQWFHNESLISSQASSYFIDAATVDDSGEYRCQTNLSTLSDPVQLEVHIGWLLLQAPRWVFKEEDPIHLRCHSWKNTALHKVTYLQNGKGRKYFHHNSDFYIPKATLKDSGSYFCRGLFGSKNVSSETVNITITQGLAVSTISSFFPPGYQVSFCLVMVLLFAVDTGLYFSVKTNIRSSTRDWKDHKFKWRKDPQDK
Procedure: After washing, the binding of 3G8-PE to CD16 expressed by the NK cells was evaluated by flow cytometry. Mean fluorescence intensity (MFI) values are expressed as a percentage, 100% being the value obtained with the 3G8-PE antibody alone, and 0% the value obtained in the absence of 3G8-PE.

In order of falling IC50:
1. B3  45 mg/L
2. B5  40.4 mg/L
3. B2  37 mg/L
4. B4  26.8 mg/L
5. B1  18.1 mg/L

What follows are binders tested against T1, human CD303 antigen (C-type lectin …) (assay: cell-based or functional assay).

In order of rising “ADCC EC50 (ng/mL) on Fc Gamma chain-CD303 Jurkat target cells” value:
1. B5  0.159 ng/mL
2. B4  0.214 ng/mL
3. B2  3.42 ng/mL
4. B3  3.61 ng/mL
5. B1  8.28 ng/mL

In order of rising “ADCC Emax (% lysis) on Fc Gamma chain-CD303 Jurkat target cells” value:
1. B3  37.4 % lysis
2. B2  38.9 % lysis
3. B1  40.5 % lysis
4. B4  41.8 % lysis
5. B5  42.4 % lysis
